# Assay results reported in patent US20240158494A1 (Biogen, published 2024).
# Like-named read-outs stand apart in the source and are kept apart here.
# Columns and labels:
# [1] = biological target: T1, human transferrin receptor 1 (TfR1), full length, expressed on cells (human, UniProt P02786 1-760); experiment: FACS on Ba/F3 cells, Fab supernatant
# T1 construct: also called human TfR1; huTfR
# [2] = biological target: T2, cynomolgus monkey transferrin receptor 1 (TfR1), full length, expressed on cells (cynomolgus monkey, UniProt Q5RDH6 1-760 (Pongo abelii entry)); experiment: FACS on Ba/F3 cells, Fab supernatant
# T2 construct: also called cyno TfR1; cyTfR
# [3] = biological target: T1, human transferrin receptor 1 (TfR1), …; experiment: FACS on Ba/F3 cells, Fab supernatant; remark: listed apart in the source
# [4] = biological target: T2, cynomolgus monkey transferrin receptor …; experiment: FACS on Ba/F3 cells, Fab supernatant; remark: listed apart in the source
# [5] = biological target: T3, recombinant human TfR1 extracellular domain, His-tagged (human, UniProt P02786 89-760); experiment: SPR, TfR1 ECD-His captured, Fab injected, 1:1 fit
# T3 construct: also called Human TfR1 ECD; human TfR1 ECD-His
# [6] = biological target: T4, recombinant cynomolgus monkey TfR1 extracellular domain, His-tagged (cynomolgus monkey, UniProt Q5RDH6 87-760 (Pongo abelii entry)); experiment: SPR, TfR1 ECD-His captured, Fab injected, 1:1 fit
# T4 construct: also called Cyno TfR1 ECD; cyno TfR1 ECD-His
# [7] = biological target: T1, human transferrin receptor 1 (TfR1), …; experiment: FACS on Ba/F3 cells, Fab supernatant; remark: listed apart in the source
# [8] = biological target: T2, cynomolgus monkey transferrin receptor …; experiment: FACS on Ba/F3 cells, Fab supernatant; remark: listed apart in the source
binder,measurement,setting,value
"TfRANTIBODY-A HC-H3(HA) hIgG1Fab′(1C)/LC-L0 hKappa (Fab, V domains shown, also called ANTIBODY-A H3(HA)/L0; H3C(HA)/L0) VH: QSLVESGGGLVQPGGSLRLSCKASGIDFSSSGYMHWVRQAPGKGLEWVGAIYTYSSNTYYASWAKGRFTISKDSKNSVYLQMNSLKTEDTAVYYCARGTYGYTGYTYTMGYFSLWGPGTLVTVSS VL: DIQMTQSPSTLSASVGDRVTITCQASQNINSYLAWYQQKPGKAPKLLIYRASSLESGVPSRFSGSGSGTEFTLTISSLQPDDFATYYCQSYYYSGSSNYNAFGGGTKVEIKR",EC50,[1],16.8 nM
same,EC50,[2],~30 nM
"TfRANTIBODY-A HC-H3(SR) hIgG1Fab′(1C)/LC-L0 hKappa (Fab, V domains shown, also called ANTIBODY-A H3(SR)/L0) VH: QSLVESGGGLVQPGGSLRLSCKASGIDFSSSGYMSWVRQAPGKGLEWVGRIYTYSSNTYYASWAKGRFTISKDSKNSVYLQMNSLKTEDTAVYYCARGTYGYTGYTYTMGYFSLWGPGTLVTVSS VL: DIQMTQSPSTLSASVGDRVTITCQASQNINSYLAWYQQKPGKAPKLLIYRASSLESGVPSRFSGSGSGTEFTLTISSLQPDDFATYYCQSYYYSGSSNYNAFGGGTKVEIKR",EC50,[1],> 290 nM
same,binding result,[2],no binding
"TfRANTIBODY-A HC-H3(SV) hIgG1Fab′(1C)/LC-L0 hKappa (Fab, V domains shown, also called ANTIBODY-A H3(SV)/L0) VH: QSLVESGGGLVQPGGSLRLSCKASGIDFSSSGYMSWVRQAPGKGLEWVGVIYTYSSNTYYASWAKGRFTISKDSKNSVYLQMNSLKTEDTAVYYCARGTYGYTGYTYTMGYFSLWGPGTLVTVSS VL: DIQMTQSPSTLSASVGDRVTITCQASQNINSYLAWYQQKPGKAPKLLIYRASSLESGVPSRFSGSGSGTEFTLTISSLQPDDFATYYCQSYYYSGSSNYNAFGGGTKVEIKR",EC50,[1],> 150 nM
same,binding result,[2],no binding
"TfRANTIBODY-A HC-H3(SY) hIgG1Fab′(1C)/LC-L0 hKappa (Fab, V domains shown, also called ANTIBODY-A H3(SY)/L0) VH: QSLVESGGGLVQPGGSLRLSCKASGIDFSSSGYMSWVRQAPGKGLEWVGYIYTYSSNTYYASWAKGRFTISKDSKNSVYLQMNSLKTEDTAVYYCARGTYGYTGYTYTMGYFSLWGPGTLVTVSS VL: DIQMTQSPSTLSASVGDRVTITCQASQNINSYLAWYQQKPGKAPKLLIYRASSLESGVPSRFSGSGSGTEFTLTISSLQPDDFATYYCQSYYYSGSSNYNAFGGGTKVEIKR",EC50,[1],> 125 nM
same,binding result,[2],no binding
"TfRANTIBODY-B HC-H1(HA) hIgG1Fab′(1C/LC-L2 hKappa (Fab, V domains shown, also called ANTIBODY-B H1(HA)/L2) VH: QSLVESGGGVVQPGRSLRLSCAASGFSFSNSYWIHWVRQAPGKGLEWVAAINTDADSTNYADSVKGRFTISKDNSKNTVYLQMNSLRAEDTAVYYCARQNNVFDPGYNLWGQGTLVTVSS VL: ELVLTQSPSTLSASVGDRVTITCRASQNIGSNLAWYQQKPGKAPKLLIYDASKLESGVPSRFSGSGSGTEFTLTISSLQPDDFATYYCQCTVRGGAYGNAFGGGTKVEIKR",EC50,[1],18.2 nM
same,EC50,[2],7.1 nM
"TfR1 ANTIBODY-B HC-H1 hIgG1 Fab′(1C)/LC-L2 hKappa (Fab, V domains shown, also called ANTIBODY-B H1/L2) VH: QSLVESGGGVVQPGRSLRLSCAASGFSFSNSYWIAWVRQAPGKGLEWVAAINTDADSTNYADSVKGRFTISKDNSKNTVYLQMNSLRAEDTAVYYCARQNNVFDPGYNLWGQGTLVTVSS VL: ELVLTQSPSTLSASVGDRVTITCRASQNIGSNLAWYQQKPGKAPKLLIYDASKLESGVPSRFSGSGSGTEFTLTISSLQPDDFATYYCQCTVRGGAYGNAFGGGTKVEIKR",EC50,[3],9.6 nM
same,EC50,[4],4.9 nM
same,Kd,[5],47.8 nM
same,koff,[5],0.00453 s⁻¹
same,kon,[5],94700 M⁻¹ s⁻¹
same,Kd,[6],12 nM
same,koff,[6],0.00105 s⁻¹
same,kon,[6],88300 M⁻¹ s⁻¹
"TfR1 ANTIBODY-B HC-H0 hIgG1 Fab′(1C)/LC-L2 hKappa (Fab, V domains shown, also called ANTIBODY-B H0/L2) VH: QVQLVESGGGVVQPGRSLRLSCAASGFSFSNSYWIAWVRQAPGKGLEWVAAINTDADSTNYADSVKGRFTISRDNSKNTLYLQMNSLRAEDTAVYYCARQNNVFDPGYNLWGQGTLVTVSS VL: ELVLTQSPSTLSASVGDRVTITCRASQNIGSNLAWYQQKPGKAPKLLIYDASKLESGVPSRFSGSGSGTEFTLTISSLQPDDFATYYCQCTVRGGAYGNAFGGGTKVEIKR",EC50,[3],168 nM
same,EC50,[4],44.5 nM
"TfR1 ANTIBODY-B HC-H2 hIgG1 Fab′(1C)/LC-L2 hKappa (Fab, V domains shown, also called ANTIBODY-B H2/L2) VH: QSLVESGGGVVQPGRSLRLSCKASGFSFSNSYWIAWVRQAPGKGLEWVAAINTDADSTNYADSVKGRFTISKDSSTTVYLQMNSLRAEDTAVYYCARQNNVFDPGYNLWGQGTLVTVSS VL: ELVLTQSPSTLSASVGDRVTITCRASQNIGSNLAWYQQKPGKAPKLLIYDASKLESGVPSRFSGSGSGTEFTLTISSLQPDDFATYYCQCTVRGGAYGNAFGGGTKVEIKR",EC50,[3],10.2 nM
same,EC50,[4],7.7 nM
same,Kd,[5],39.4 nM
same,koff,[5],0.00328 s⁻¹
same,kon,[5],83200 M⁻¹ s⁻¹
same,Kd,[6],8.7 nM
same,koff,[6],0.00113 s⁻¹
same,kon,[6],129000 M⁻¹ s⁻¹
"TfRANTIBODY-B HC-H1(SV) hIgG1Fab′(1C)/LC-L2 hKappa (Fab, V domains shown, also called ANTIBODY-B H1(SV)/L2) VH: QSLVESGGGVVQPGRSLRLSCAASGFSFSNSYWISWVRQAPGKGLEWVAVINTDADSTNYADSVKGRFTISKDNSKNTVYLQMNSLRAEDTAVYYCARQNNVFDPGYNLWGQGTLVTVSS VL: ELVLTQSPSTLSASVGDRVTITCRASQNIGSNLAWYQQKPGKAPKLLIYDASKLESGVPSRFSGSGSGTEFTLTISSLQPDDFATYYCQCTVRGGAYGNAFGGGTKVEIKR",EC50,[1],98.6 nM
same,EC50,[2],30 nM
"TfRANTIBODY-B HC-H3C/LC-L2 (C90T) hIgG1Fab′(1C) (Fab, V domains shown, also called ANTIBODY-B H3C/L2(C90T)) VH: QSLVESGGGVVQPGRSLRLSCAASGFSFSNSYWICWVRQAPGKGLEWVGCINTDADSTNYASWARGRFTISKDNSKNTLYLQMNSLRAEDTAVYYCARQNNVFDPGYNLWGQGTLVTVSS VL: ELVLTQSPSTLSASVGDRVTITCRASQNIGSNLAWYQQKPGKAPKLLIYDASKLESGVPSRFSGSGSGTEFTLTISSLQPDDFATYYCQTTVRGGAYGNAFGGGTKVEIKR",EC50,[7],15.9 nM
same,EC50,[8],6.3 nM
"TfR1 ANTIBODY-B HC-H0C hIgG1 Fab′(1C)/LC-L2 hKappa (Fab, V domains shown, also called ANTIBODY-B H0C/L2) VH: QVQLVESGGGVVQPGRSLRLSCAASGFSFSNSYWICWVRQAPGKGLEWVGCINTDADSTNYADSVKGRFTISRDNSKNTLYLQMNSLRAEDTAVYYCARQNNVFDPGYNLWGQGTLVTVSS VL: ELVLTQSPSTLSASVGDRVTITCRASQNIGSNLAWYQQKPGKAPKLLIYDASKLESGVPSRFSGSGSGTEFTLTISSLQPDDFATYYCQCTVRGGAYGNAFGGGTKVEIKR",EC50,[3],9.3 nM
same,EC50,[4],5.5 nM
same,Kd,[5],14.1 nM
same,koff,[5],0.00343 s⁻¹
same,kon,[5],244000 M⁻¹ s⁻¹
same,Kd,[6],6.5 nM
same,koff,[6],0.00136 s⁻¹
same,kon,[6],210000 M⁻¹ s⁻¹
"TfR1 ANTIBODY-B HC-H3 hIgG1 Fab′(1C)/LC-L2 hKappa (Fab, V domains shown, also called ANTIBODY-B H3/L2) VH: QSLVESGGGVVQPGRSLRLSCAASGFSFSNSYWIAWVRQAPGKGLEWVAAINTDADSTNYASWARGRFTISKDNSKNTLYLQMNSLRAEDTAVYYCARQNNVFDPGYNLWGQGTLVTVSS VL: ELVLTQSPSTLSASVGDRVTITCRASQNIGSNLAWYQQKPGKAPKLLIYDASKLESGVPSRFSGSGSGTEFTLTISSLQPDDFATYYCQCTVRGGAYGNAFGGGTKVEIKR",EC50,[3],15.7 nM
same,EC50,[4],5.7 nM
same,Kd,[5],65 nM
same,koff,[5],0.00595 s⁻¹
same,kon,[5],91500 M⁻¹ s⁻¹
same,Kd,[6],12 nM
same,koff,[6],0.00172 s⁻¹
same,kon,[6],143000 M⁻¹ s⁻¹
"TfRANTIBODY-B HC-H1(SR) hIgG1Fab′(1C)/LC-L2 hKappa (Fab, V domains shown, also called ANTIBODY-B H1(SR)/L2) VH: QSLVESGGGVVQPGRSLRLSCAASGFSFSNSYWISWVRQAPGKGLEWVARINTDADSTNYADSVKGRFTISKDNSKNTVYLQMNSLRAEDTAVYYCARQNNVFDPGYNLWGQGTLVTVSS VL: ELVLTQSPSTLSASVGDRVTITCRASQNIGSNLAWYQQKPGKAPKLLIYDASKLESGVPSRFSGSGSGTEFTLTISSLQPDDFATYYCQCTVRGGAYGNAFGGGTKVEIKR",binding result,[1],no binding
same,binding result,[2],no binding
"TfRANTIBODY-B HC-H1(SY) hIgG1Fab′(1C)/LC-L2 hKappa (Fab, V domains shown, also called ANTIBODY-B H1(SY)/L2) VH: QSLVESGGGVVQPGRSLRLSCAASGFSFSNSYWISWVRQAPGKGLEWVAYINTDADSTNYADSVKGRFTISKDNSKNTVYLQMNSLRAEDTAVYYCARQNNVFDPGYNLWGQGTLVTVSS VL: ELVLTQSPSTLSASVGDRVTITCRASQNIGSNLAWYQQKPGKAPKLLIYDASKLESGVPSRFSGSGSGTEFTLTISSLQPDDFATYYCQCTVRGGAYGNAFGGGTKVEIKR",EC50,[1],113 nM
same,EC50,[2],> 55 nM
"TfRANTIBODY-B HC-H3C/LC-L2 (C90V) hIgG1Fab′(1C) (Fab, V domains shown, also called ANTIBODY-B H3C/L2(C90V)) VH: QSLVESGGGVVQPGRSLRLSCAASGFSFSNSYWICWVRQAPGKGLEWVGCINTDADSTNYASWARGRFTISKDNSKNTLYLQMNSLRAEDTAVYYCARQNNVFDPGYNLWGQGTLVTVSS VL: ELVLTQSPSTLSASVGDRVTITCRASQNIGSNLAWYQQKPGKAPKLLIYDASKLESGVPSRFSGSGSGTEFTLTISSLQPDDFATYYCQVTVRGGAYGNAFGGGTKVEIKR",EC50,[7],7.7 nM
same,EC50,[8],3.2 nM
